Holding throughout (assay): competition ELISA, antibody preincubated with target, AMH-coated plate
For experiment [1], the target named is T1, AMH truncated antigen 42-49 (human).
T1 peptide: DLDWPPGS
The method, then:
(§1) 1. AMH antigen was diluted with carbonic acid buffer (20 mmol/L CB, pH 9.6) and then coated on a polyvinyl chloride plate. In the pretreatment, the antibody purified by the protein A column and the synthesized AMH truncated antigen sequences (see Table 3 for each synthetic sequence) were subjected to proportion incubation (100 ng/ml antibody: 50 ug/ml truncated antigen) for 30 minutes, that were test samples; the control sample was 100 ng/ml antibody: PBS, incubation for 30 minutes, and then the test samples after incubation and the control sample were added to AMH antigen plate and incubated for 30 minutes, the plate was washed for 5 times, added with GAM-HRP (1/5000 dilution) and incubated for 30 minutes, the plate was washed for 5 times, and the substrate was added and incubated for 15 minutes. The values under wavelength of 450/620 were read by microplate reader, and the detected OD values were finally calculated and analyzed. The calculation formula was: (control sample OD value−test sample OD value)/control sample OD value, and the criterion for determination was as follows: more than 90%, which indicated a good competitive effect, showing that the antibody should recognize the epitope.

The target of experiment [2] is T2, AMH truncated antigen 42-46 (human).
T2 peptide: DLDWP
The method, then: as §1

In experiment [3] the target is T3, AMH truncated antigen 42-47 (human).
T3 peptide: DLDWPP
The method, then: as §1

Experiment [4] deals with T4, AMH truncated antigen 71-85 (human).
T4 peptide: RVVGALSAYEQAFLG
The protocol: as §1

For experiment [5], the target named is T5, AMH truncated antigen 31-41 (human).
T5 peptide: AVGTSGLIFRE
The method, then: as §1

For experiment [6], the target named is T6, AMH truncated antigen 31-42 (human).
T6 peptide: AVGTSGLIFRED
The method, then: as §1

The target of experiment [7] is T7, AMH truncated antigen 31-45 (human).
T7 peptide: AVGTSGLIFREDLDW
The protocol:
as §1

Experiment [8] deals with T8, AMH truncated antigen 38-45 (human).
T8 peptide: IFREDLDW
The protocol:
as §1

Experiment [9] has as its target T9, AMH truncated antigen 43-51 (human).
T9 peptide: LDWPPGSPQ
The protocol: as §1

In experiment [10] the target is T10, AMH truncated antigen 40-45 (human).
T10 peptide: REDLDW
The protocol: as §1

Experiment [11] addresses T11, AMH truncated antigen 171-270aa (human).
T11 peptide: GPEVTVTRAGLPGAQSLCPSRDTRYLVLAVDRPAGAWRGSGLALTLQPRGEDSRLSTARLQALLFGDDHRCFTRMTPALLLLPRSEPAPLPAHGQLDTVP

Experiment [12] addresses T12, recombinant human AMH (anti-Mullerian Hormone) (human, UniProt P03971 25-560).
T12 construct: range 1-560; also called AMH antigen; AMH (1-560)
T12 sequence (looked up): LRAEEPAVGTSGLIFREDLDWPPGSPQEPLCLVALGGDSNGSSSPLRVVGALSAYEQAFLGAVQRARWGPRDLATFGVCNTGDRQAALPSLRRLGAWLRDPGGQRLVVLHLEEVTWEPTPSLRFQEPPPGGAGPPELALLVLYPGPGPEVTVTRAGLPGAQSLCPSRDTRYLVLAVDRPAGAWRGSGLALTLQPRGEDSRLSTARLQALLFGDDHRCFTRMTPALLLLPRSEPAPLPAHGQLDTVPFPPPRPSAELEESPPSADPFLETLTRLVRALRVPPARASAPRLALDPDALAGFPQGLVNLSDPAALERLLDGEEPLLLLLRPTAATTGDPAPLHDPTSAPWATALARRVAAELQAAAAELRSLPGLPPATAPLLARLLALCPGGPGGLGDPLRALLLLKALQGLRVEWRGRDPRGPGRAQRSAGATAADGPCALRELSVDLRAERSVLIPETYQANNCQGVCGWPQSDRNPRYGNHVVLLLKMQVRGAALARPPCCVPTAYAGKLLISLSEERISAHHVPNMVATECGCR

Experiment [13] has as its target T13, AMH truncated antigen 341-440aa (human).
T13 peptide: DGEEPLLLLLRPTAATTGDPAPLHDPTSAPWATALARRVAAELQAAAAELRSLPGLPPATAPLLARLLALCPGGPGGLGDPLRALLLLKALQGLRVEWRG

Experiment [14] has as its target T14, AMH truncated antigen 26-85 aa (human).
T14 peptide: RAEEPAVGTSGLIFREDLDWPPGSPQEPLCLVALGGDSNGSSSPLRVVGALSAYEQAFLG

Experiment [15] concerns the target T15, AMH truncated antigen 256-355aa (human).
T15 peptide: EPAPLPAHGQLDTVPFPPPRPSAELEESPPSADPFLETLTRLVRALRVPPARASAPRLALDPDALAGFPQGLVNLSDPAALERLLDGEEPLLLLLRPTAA

Experiment [16] deals with T16, AMH truncated antigen 461-560aa (human).
T16 peptide: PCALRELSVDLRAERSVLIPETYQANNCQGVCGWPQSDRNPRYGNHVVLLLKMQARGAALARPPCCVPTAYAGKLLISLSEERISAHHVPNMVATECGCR

The target of experiment [17] is T17, AMH truncated antigen 426-525aa (human).
T17 peptide: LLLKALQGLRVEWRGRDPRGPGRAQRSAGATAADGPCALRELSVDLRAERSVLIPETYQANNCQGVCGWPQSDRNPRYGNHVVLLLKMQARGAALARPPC

Experiment [18] has as its target T18, AMH truncated antigen 86-185aa (human).
T18 peptide: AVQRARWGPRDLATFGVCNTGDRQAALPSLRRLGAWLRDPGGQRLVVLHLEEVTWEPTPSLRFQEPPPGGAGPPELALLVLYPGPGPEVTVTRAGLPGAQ

B1: monoclonal antibody C9F2-2 (antibody, V domains shown)
VH: EVQLVESGGGLVKPGGSLKLSCAASGFAFSTYDMSWVRQTPEKRLEWVAYISPGGGATYYPDTVKGRFTISRDNAKNTLYLQMTSLKSEDTAMYYCAGRRDYYGMDYWGQGTSVTVSS
VL: DVVMTQTPLSLPVSLGDQASISCRSSQSLVHSNGNTYLHWYLQKPGQSPKLLIYKVSNRFSGVPDRFSGSGSGTDFTLKISRVEAEDLGVYFCSQSTHVPWTFGGGTKLEIK
notes: Mouse hybridoma antibody purified from ascites; the tie is indirect; also called hybridoma CCTCC NO: C2018183
Take B1: the percent inhibition is -8% in [1]; -10% in experiment [2]; 6% in [3]; 21% in experiment [4]; 10% in experiment [5]; 16% in experiment [6]. The percent inhibition in [7] was 90%; in [8], 92%; in [9], -10%; in experiment [10], -14%; in experiment [11], 0%; in experiment [12], 92%. For the same molecule, the percent inhibition in [13] stood at 10%; in [14], 99%; in experiment [15], 1%; in experiment [16], 6%; in experiment [17], 1%; in [18], 2%.
